B1: Double-stranded RNA-specific adenosine deaminase, residues 296 to 358; numbered along this chain, P55265 (parent)
chain: MAEIKEKICDYLFNVSDSSALNLAKNIGLTKARDINAVLIDMERQGDVYRQGTTPPIWHLTDK

Variants of: B1
Test: abundance fitness (aPCA) (normalised: wild type 0, dead -1); higher = more abundant; growth selection in yeast, the domain comes from the species named
Settings: Homo sapiens

Abundance fitness, by site and new letter:
I35: S -0.343; K -0.323; L -0.279; P -0.257; W -1.1; V -0.034; F -0.681; C -0.348; Y -0.743; H -0.556; Q -0.348; M -0.523; A -0.326; T -0.217; D -0.225; G -0.627
L39: G -0.176; W -0.966; C -0.528; V -0.589; D -0.125; N -0.393; T -0.461; S -0.265; P -0.385; K -0.096; I -0.756; A -0.148; R -0.365; F -0.812; Y -0.678; H -0.44; Q -0.244; M -0.294
D34: Y -0.694
E43: R -0.927; Y -0.725; P -0.729; Q -0.447; V -0.873; H -0.798; T -1.07; L -0.93; S -0.841; M -0.848; A -0.66; D -0.665; N -0.697; F -0.748; I -1.13; G -0.508
T53: A -0.033; R 0.238; I -0.744
D41: A -0.315; V -1.14; N -0.514; M -0.539; P -0.421; R -0.73; W -1.12; F -1.34; T -0.445; H -0.754; L -0.99; E 0.223; S -0.501; Y -1.06; C -0.822; G -0.348
P55: L -0.594; F -0.396; K -0.49; H -0.435; G -0.434; M -0.632; D 0.06; Q -0.486; N -0.006; I -0.547; E -0.043; C -0.344; A -0.243
Q51: N -0.051; W -0.407; T 0.494; P -0.861; I 0.088; G -0.215; H -0.094; V 0.208; A -0.162; D 0.22; F -0.658; S 0.401; K 0.053; E 0.176; C 0.051
A37: H 0.039; R -0.054; T -0.173; C -0.417; N -0.247; P -0.145; E -0.024; W -0.453; G -0.332; S -0.025; Y -0.457; D -0.101; Q -0.11; L -0.392; M -0.386
I40: T -0.065; G -0.265; V -0.049; K -0.025; Q 0.159; D -0.093; A 0.083; C -0.153; N 0.075; Y 0.043; S 0.117; L 0.128; R -0.054; M 0.122; W -0.388; P -0.387; H -0.218; F -0.165
N36: E 0.406; I -0.438; G -0.366; S -0.202; V -0.428; K -0.098; C -0.397; H 0.081; Q -0.156; F -0.455; L -0.282; R -0.38; D 0.131; A -0.497; M -0.184; W -0.154; P -0.49; T -0.011; Y -0.232
R50: T -0.406; D -0.761; I -0.798; Y -0.985; V -0.381; W -0.722; A -0.238; Q 0.036; S -0.019; E -0.392; K 0.12; N -0.379; L -0.684; G -0.453; M -0.555; H -0.274; F -0.601
Y49: E 0.259; G -0.076; H -0.074; V 0.177; N -0.34; T 0.135; L -0.27; Q 0.051; C 0.078; R 0.007; P -0.519; S 0.111; I 0.053; K 0.161; W -0.044; F -0.167; M 0.003
Q45: G -0.778; C -0.053; R -0.33; T -0.097; F -0.729; I -0.495; K -0.492; D 0.17; N 0.033; E 0.022; L -0.524; V -0.075; A 0.145; S 0.022; Y -0.637; P -0.912; H -0.024
T54: A -0.04; V -0.204; R -0.18; H 0.045; K -0.024; F -0.429; G -0.32; N 0.306; W -0.513; L -0.448; E 0.093; S 0.127; C -0.148; Y -0.386; P -0.722
G46: Y -1.06; T -0.856; F -1.05; N -0.827; R -0.902; S -0.618; Q -0.652; I -1.03; C -0.998; E -0.66; W -1.15; A -0.844; M -0.498; V -0.613; K -0.448; P -0.778; L -0.974
V48: N -0.286; S -0.585; T -0.563; H -0.574; E -0.23; Y -0.862; D -0.335; A -0.284; K -0.701; P -0.507; W -0.692; Q -0.743; C -0.389; F -0.927; I -0.139
M42: F -0.965; T -0.636; G -0.485; W -0.795; A -0.479; E -0.22; L -0.369; K -0.303; V -0.774; I -1.03; P -0.502; R -0.629; D -0.551; N -0.412; Q -0.335; C -0.742; S -0.613
D47: Y -0.068; K 0.024; T 0.205; A -0.117; F -0.177; H -0.123; C -0.096; N -0.322; Q 0.122; W -0.234; S -0.114; E 0.35; V 0.288; R 0.046; M 0.182; G -0.881; L 0.297
V38: R -0.528; P -0.24; S -0.316; L -0.253; W -0.739; H -0.31; Q -0.276; K -0.387; I 0.035; F -0.952; D -0.254; E -0.13; T -0.11; G -0.128; A 0.343; M -0.488; C 0.12; N -0.195; Y -1.27
R44: S -0.173; G -0.334; E -0.126; K 0.067; C -0.6; I -0.26; A 0.079; H -0.274; D -0.175; T -0.043; N -0.056; M -0.27; Y -0.614; W -0.705; L -0.373; Q 0.037
G52: W -0.518; V -0.638; D -0.105; I -0.779; H -0.234; Y -0.765; T -0.659; E -0.12; K -0.367; C -0.525; M -0.812; F -0.901; A -0.342; N -0.072; R -0.489; S -0.387; L -0.764

From the Human Domainome abundance scans (Beltran et al. 2025)
